Source: paper PMC7593965

Target: isolated C-terminal domain of FusB (Pectobacterium carotovorum LMG2410)
Assay: ITC; MicroCal iTC200, 25°C, 10 mM Tris-HCl (pH 7.5)-150 mM NaCl; titrant (FusANTR-GFP, GFP or FerSp) injected in 2 μl steps into FusBCTD, FusBCTD R176K/R177K or TonBCTD in the cell

Row | Substance | Kd [µM]
1 | N-terminal region of FusA (residues 21 to 66) fused to green fluorescent protein (from UniProt C6DG80 21-66) (domain or fragment) | 57
2 | spinach ferredoxin (from UniProt P00221 51-147) (natural protein) | 8.7
